Data reported in the supplement of paper PMC9170038.

Test system: MS2 coat protein
Experiment: apparent KD of MS2 coat protein; designed switch direction (-1 OFF switch, 1 ON switch): -1; higher = weaker reporter binding
In short: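 Normalised cluster fluorescence was curve-fitted, and each design's median over clusters is its apparent KD. Before this, SNAP-549-labelled MS2 coat protein was titrated from 0.7 or 1.5 nM, doubling to 3 µM, over RNA switches transcribed on Illumina chips by stalled E. coli RNA polymerase. Titrations had no input, 200 uM small-molecule ligand, or an oligonucleotide input, and steps lasted 0.8–1.5 h (lowest) to 10–20 min (highest).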

[1] = input ligand: microRNA oligo, concentration not stated

In the case of “AACGUCUAGGUAGGAUAUCCACCAACAGGUGGAAGGAUAUGUUCGCAGAAGGUUCGCCAACAGGCGGAGAAGGACCUACGCGUA [pwkr exNG2 2xF7 2xFMN.31] (Eterna round: R96, puzzle: Exclusion NG 2)”, the “apparent KD of MS2 coat protein” value (input ligand: FMN 200 uM) was 11.1 nM, the “apparent KD of MS2 coat protein” value [1] was 24.6 nM and the “apparent KD of MS2 coat protein” value (input ligand: none) was 116 nM.

For “AAUUAACAUCAGGAUAUGACUAGCCUCGGCUAGUCAGAAGGGAUGACAUGAGGAUCACCCAUGUGAUCAAUUAA [E6/2-A2] (Eterna round: R97, puzzle: Exclusion 6)”, the “apparent KD of MS2 coat protein” value (input ligand: FMN 200 uM) was 392 nM and the “apparent KD of MS2 coat protein” value (input ligand: none) was 108 nM.

With “ACAUGAGGAUCACCCAUGUAAUGAAGGGUACUAUAUUAAACGUAGGAUAUCGAUGUAAGUUUGUACGAGAAGGACGAUUGCCUU [JR_ExcNG3_Sub052] (Eterna round: R96, puzzle: Exclusion NG 3)” the “apparent KD of MS2 coat protein” value (input ligand: FMN 200 uM) was 48.2 nM, the “apparent KD of MS2 coat protein” value [1] was 39.5 nM and the “apparent KD of MS2 coat protein” value (input ligand: none) was 84.1 nM.

“UGCUGACGAGGAUAUACAUGAGGAUCACCCAUGUUGGUUCAGCGACGAUAGUCGCAAUGUAGAAGGCGUCAGCU [E3/9-A3] (Eterna round: R97, puzzle: Exclusion 3)” was tested, and the “apparent KD of MS2 coat protein” value (input ligand: FMN 200 uM) was 202 nM and the “apparent KD of MS2 coat protein” value (input ligand: none) was 765 nM.

In the case of “CCUGGGUCAUCUCCCAGGAACAACAUGAGGAUCACCCAUGUCUAGGAUAUCCACCAGUCAAUAAAGGAGAAGGAGACGGUGGUU [Onlaxe] (Eterna round: R96, puzzle: Exclusion NG 3)”, the “apparent KD of MS2 coat protein” value (input ligand: FMN 200 uM) was 22.2 nM, the “apparent KD of MS2 coat protein” value [1] was 14.6 nM and the “apparent KD of MS2 coat protein” value (input ligand: none) was 19.7 nM.

With “GCACUGGCAGGAUAUACAUGAGGAUCACCCAUGUGAUCCCUUAGGUACAAAAGUACAAGUAGAAGGGCCUGUGC [Omei Ex3 Model Bachelor's Dilema v44] (Eterna round: R97, puzzle: Exclusion 3)” the “apparent KD of MS2 coat protein” value (input ligand: FMN 200 uM) was 52.2 nM and the “apparent KD of MS2 coat protein” value (input ligand: none) was 845 nM.

For “GCACUGCGAGGAUAUACAUGAGGAUCACCCAUGUGUCGGCAGCCAUGGUAGUACAAAUGUAGAAGGCGCGUAAA [EX3 #50] (Eterna round: R97, puzzle: Exclusion 3)”, the “apparent KD of MS2 coat protein” value (input ligand: FMN 200 uM) was 85.6 nM and the “apparent KD of MS2 coat protein” value (input ligand: none) was 587 nM.

“UUAUUAUAUGUAGGAUAUGCAUAUUGUUGUUAUGCAGAAGGACAUGAGGAUCACCCAUGUAUAUUGUUGUUGUAUAUUAUAUAU [Title] (Eterna round: R96, puzzle: Exclusion NG 1)” was tested, and the “apparent KD of MS2 coat protein” value (input ligand: FMN 200 uM) was 33.2 nM, the “apparent KD of MS2 coat protein” value [1] was 22.6 nM and the “apparent KD of MS2 coat protein” value (input ligand: none) was 23.3 nM.

In the case of “UCAAAGUCAGGAUAUACAUGAGGAUCACCCAUGUAAAAUUUUAAUUUAAUUUGAAGGUGUAGAAGGGACAAACU [Ex3 #34] (Eterna round: R97, puzzle: Exclusion 3)”, the “apparent KD of MS2 coat protein” value (input ligand: FMN 200 uM) was 39.2 nM and the “apparent KD of MS2 coat protein” value (input ligand: none) was 38.8 nM.

For “UUUACAAGCUUAAGAUCCCACAUGAGGAUCACCCAUGUUCCUGGCCGUGAGGCUAGGUAAACUUAUGCUCGUCUUAU [JL TOV1 3.68] (Eterna round: R97, puzzle: Sensor, turn-off variant 1)”, the “apparent KD of MS2 coat protein” value (input ligand: FMN 200 uM) was 141 nM and the “apparent KD of MS2 coat protein” value (input ligand: none) was 138 nM.

With “CACCGUUACAGAGGAUAUGACACAUGAGGAUCACCCAUGUAAUAAAUGAGAAUUUCGAAUGUAACUCAGAAGGCUGGAAUCGGC [Ostricism 77 - Jieux - Exclusion NG 2] (Eterna round: R96, puzzle: Exclusion NG 2)” the “apparent KD of MS2 coat protein” value [1] was 22.1 nM.

For “CAGUACAGAGGAUAUACAUGAGGAUCACCCAUGUGUUUCAGGUACGAGAGUACCGAGUGUAGAAGGCUGUACUG [jl-ex3-4.28 salish99 mod] (Eterna round: R97, puzzle: Exclusion 3)”, the “apparent KD of MS2 coat protein” value (input ligand: FMN 200 uM) was 244 nM and the “apparent KD of MS2 coat protein” value (input ligand: none) was 38.1 nM.

In the case of “AGUACUAACACGGUUGUGUUAGUACAAUAAGCUUGUGAAACAUGAGGAUCACCCAUGUCCUCAUAAGCUCGUCUUAU [salish99_TOv2_r3_070] (Eterna round: R96, puzzle: Sensor v3, turn-off variant 2)”, the “apparent KD of MS2 coat protein” value (input ligand: FMN 200 uM) was 15 nM, the “apparent KD of MS2 coat protein” value [1] was 464 nM and the “apparent KD of MS2 coat protein” value (input ligand: none) was 17.3 nM.
